The test has as its target Cdc42 (Homo sapiens, UniProt P60953). Put plainly: fluorescence intensity titration.

Where no end group is shown, it is not given here.

Cdc42, sequence (P60953 1-188): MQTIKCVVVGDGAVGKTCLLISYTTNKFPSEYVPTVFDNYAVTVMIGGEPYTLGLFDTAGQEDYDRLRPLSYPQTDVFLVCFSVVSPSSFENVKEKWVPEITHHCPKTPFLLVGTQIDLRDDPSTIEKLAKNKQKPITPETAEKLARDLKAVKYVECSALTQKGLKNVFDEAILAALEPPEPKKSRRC

B1: WASP CBD (Cdc42 binding domain) (protein)
chain: KKKISKADIGAPSGFKHVSHVGWDPQNGFDVNNLDPDLRSLFSRAGISEAQLTDAETSK
modifications: also: MBP fusion, mero87 dye label, site not given here
As for B1, the Kd amounted to 0.186 µM. This counts as sub-micromolar.

B2: WASP CBD (Cdc42 binding domain) (protein)
chain: KKKISKADIGAPSGFKHVSHVGWDPQNGFDVNNLDPDLRSLFSRAGISEAQLTDAETSK
modifications: also: MBP fusion, mero61 dye label, site not given here
For the molecule B2, the Kd was 0.144 µM.

Values taken from publication PMC3667669 (2014).
